Measured values from the DeepSol protein solubility set.

Test: soluble on expression in E. coli; label from the status in PepcDB or PDB records

Q: For “MIQRFIELGEGYSDIYELIALAKANRHRLSGFFVFHTVKKGQAVVSLAIVLHPTDPGDFQPLYICREGIPDPSVKPNKRYELFMETAKELGMDVIHLDVKPSTMFAELDLYYQHLIGIMRMNRFIPPLQ”, which “soluble on expression in E. coli” value is on record?
A: not soluble

Q: Which “soluble on expression in E. coli” value does the source give for “MIQTPYYLIDADRLRQNMAVVDRLRQASGAKALLALKCFATWPAFEHMRDHMDGTTSSSLYELRLGREKFGKETHAYSVAWPDHEIDEAVGYADKIIFNSVGQLARFRNRTGGIARGLRLNPGLSTSGFDLADPARPFSRLGEWSAEKIEAVLPDISGVMIHYNCENADVDLFERQLSEIEGRFGAILDRLDWVSLGGGIHFTGEGYPVDRLAARLKAFAAAHGVQVYLEPGEAAITRSATLEVTVLDLLDNGKQLAIVDSSVEAHMLDLLIYRQSAKVEPDAGDHSYMVCGKSCLAGDIFGEFRFAQPLQVGDRLSIADAAGYTMVKKNWFNGVKMPSIVIREPDGSLRVAREFGYGDYASSLG” here?
A: not soluble

Q: For “MIQVENLTKTINNQMILEDISIDIEKGKLTSLIGPNGAGKSTLLSAICRLIRFENGEVKIDGQLMSDYKNNDLSKKISILKQTNHTEMNITVEQLVNFGRFPYSKGRLTKEDHDIVNDALDLLQLQDIRNRNIKSLSGGQRQRAYIAMTIAQDTEYILLDEPLNNLDMKHAVQIMQTLKMLAHKMNKAIVIVLHDINFASCYSDQIVALKNGQLVKSDLKDNVIQSSVLSDLYDMNIQIEHIRNQRICLYFKD”, which “soluble on expression in E. coli” value is on record?
A: not soluble

Q: For “MIRIDVVLPAYRPGQGWEREAISRLTALSDSIPDVTFRIFIVPDGSNEGHSDEVRSHWATSPWEVIYCDYAKNRGKGFAVRYGVGQTDAPFVLYTDYDLPFTLDSYKQVIEALLEGADVVISRREPESYGKKIRFKRKMLSDFSHFVNKFFFLPTTDTQGGLKGFSSTGRFIFLQTRIDSFLFDTEFICLAKRKKVCIAVVSGSIRPDISLSVMKAKTILREVYKIPKLIKARWFS”, which “soluble on expression in E. coli” value is on record?
A: not soluble

Q: Which “soluble on expression in E. coli” value does the source give for “MIRSATKEDGQAIARLVLVILKDMELPILEEVSEEQMIDLLAEATAYPTYRYGYQRILVYEHAGEVAGIAVGYPAEDEKIIDEPLREVFKKHGLAEDVRLFIEEETLPNEWYLDTISVDERFRGMGIGSKLLDALPEVAKASGKQALGLNVDFDNPGARKLYASKGFKDVTTMTISGHLYNHMQKEV” here?
A: not soluble

Q: With “MIRSIFIPPTSITATSRLFYGMRAYSTKLEKASLQKYLHDPVKVTVIPITDKESFIYYKHTDNLFNSQSRILKAEKWIVEKSAKLWRKLKKSPKSYNKKIVSMVQSLLNSTPWSENSLLTIPSESYILKRIKGEKDKTQEIRLTLKDYTVKAEQVDTQPLHVYYPPGISSPDECLRQMKKLYQEGLIYHKKWTLYCLLGLPLTIPLILIPLIPNVPGFYLSYRAYVNIKAYLGAKHLKSLLESSKQNLEFRELLGYTEVYKRGTSSRTQGNQKESKGAPELLLNKKTLPLILDFLEVHELESDLNKVILQESKSQEKNKI” as the sequence, how does the “soluble on expression in E. coli” value read?
A: not soluble

Q: For “MIRVHSYESMGTFDGPGLRLVVFLQGCNFRCLYCANPDTIDTKGESTETAIDEIVRMAVSQKAFFGKKGGVTFSGGEPTLQAKALIPLFQRLKEQNIHICIDTNGSIWNEEVEELLKWTDLVLLDIKEFNNVRHRQLTERSNEQTIRTAEWLEKNGKPFWLRYVLVPGYSSFEEDIRALGEHFKNYHMIQRVEILPYHTLGVHKYEAMGKEYKLNGIKENTLEQLETAKTLFGEYFNTVYLN”, which “soluble on expression in E. coli” value is on record?
A: not soluble

Q: For “MIRVIEKGDKVSLPFSRGILTRSITSVGIDVDLAYSIAIEVQEELVKKGKTIVTKDEIRKLTYQKLIEKGFKEEAKRYIFWRRFRKMKVPLIILLGGPTGVGKSTIATELAFRLGIRSVIGTDSIREVLRKIITPELLPTIHTSTFLAWKELKGTVTDSPIVAGFESQVSAVTVGINAIIERAVREGLNAIIEGIHVVPGFVKVEGEMTFMYMLIARSREDLEARFYERTRYSKRPADYYISHLDEILEIQDYLIRRAKKFNVPVIENVELEETVSKIMEDIMQKTIEIMKGKGLDLLEEP”, which “soluble on expression in E. coli” value is on record?
A: soluble
